# Patent US7091311 (GlaxoSmithKline, dated 2006)
# *1 amine or outer side, *2 acyl side, *3 side chain or, on linkers, in order; H or OH if unused. Bridges are numbered along the chain shown (N, C = ends). Where no end group is shown, it is not given here. [ ]: non-standard residue; d: D form. Phe(4-NO2) = N[C@@H](Cc1ccc([N+](=O)[O-])cc1)C(=O)O; Phe(3,4-Cl2) = N[C@@H](Cc1ccc(Cl)c(Cl)c1)C(=O)O; DiPhAla = diphenylalanine (source's own name); Ser(Bzl) = O=C([C@H](COCc1ccccc1)N[*:1])[*:2]; Phe(4-Cl) = N[C@@H](Cc1ccc(Cl)cc1)C(=O)O; 1Nal = N[C@@H](Cc1cccc2ccccc12)C(=O)O; 2Nal = N[C@@H](Cc1ccc2ccccc2c1)C(=O)O; NMeF = CN[C@@H](Cc1ccccc1)C(=O)O; hPhe = N[C@@H](CCc1ccccc1)C(=O)O; 2Thi = N[C@@H](Cc1cccs1)C(=O)O; Cha = N[C@@H](CC1CCCCC1)C(=O)O; NMeL = CN[C@@H](CC(C)C)C(=O)O; Phg = N[C@H](C(=O)O)c1ccccc1; Tle = CC(C)(C)[C@H](N)C(=O)O; NMeV = CN[C@H](C(=O)O)C(C)C; NMeA = CN[C@@H](C)C(=O)O; Nle = CCCC[C@H](N)C(=O)O; Nva = CCC[C@H](N)C(=O)O; Abu = CC[C@H](N)C(=O)O; Aib = CC(C)(N)C(=O)O; Sar = CNCC(=O)O
# T1: full length human TPO-R (human, UniProt P40238 26-635)
# T1 sequence (looked up): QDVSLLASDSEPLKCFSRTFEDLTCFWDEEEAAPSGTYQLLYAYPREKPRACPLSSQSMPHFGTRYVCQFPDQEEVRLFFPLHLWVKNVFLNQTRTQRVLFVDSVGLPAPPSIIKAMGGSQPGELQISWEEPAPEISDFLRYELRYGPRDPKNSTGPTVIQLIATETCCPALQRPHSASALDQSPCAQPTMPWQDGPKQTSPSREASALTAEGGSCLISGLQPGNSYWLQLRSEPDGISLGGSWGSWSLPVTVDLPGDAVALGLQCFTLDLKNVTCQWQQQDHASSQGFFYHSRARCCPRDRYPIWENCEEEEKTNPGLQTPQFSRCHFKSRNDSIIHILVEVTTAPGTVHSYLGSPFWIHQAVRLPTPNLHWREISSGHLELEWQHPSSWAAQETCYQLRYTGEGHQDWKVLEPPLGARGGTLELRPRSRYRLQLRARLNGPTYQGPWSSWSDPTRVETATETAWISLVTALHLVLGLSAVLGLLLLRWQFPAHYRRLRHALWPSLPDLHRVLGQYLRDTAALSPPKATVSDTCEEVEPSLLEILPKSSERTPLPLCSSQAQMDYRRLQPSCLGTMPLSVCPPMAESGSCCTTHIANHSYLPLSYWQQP
# Biological target: T1, full length human TPO-R
# Test: cell-based or functional assay
Binder,EC50 cell proliferation,EC50 microphysiometer
"CADGPTLREWI[NMeV]FC (disulfide 1-14 (inferred); not fully specified) [SEQ ID NO:12 cyclized, S - (N-Me-Val)]",≤ 200000 nM,
"CADGPTLREWIS[hPhe]C (disulfide 1-14 (inferred); not fully specified) [SEQ ID NO:12 cyclized, F - Homo-Phe]",≤ 500 nM,≤ 500 nM
"CADGPTLREWIS[DiPhAla]C (disulfide 1-14 (inferred); not fully specified) [SEQ ID NO:12 cyclized, F - (DiPh - Ala)]",≤ 500 nM,
"CADGPTLREWI[NMeA]FC (disulfide 1-14 (inferred); not fully specified) [SEQ ID NO:12 cyclized, S - (N-Me-Ala)]",~200000 nM,
"CADGPTLREWIS[1Nal]C (disulfide 1-14 (inferred); not fully specified) [SEQ ID NO:12 cyclized, F - (1-Nal)]",≤ 500 nM,
"CADGPTLREWIS[Phe(4-Cl)]C (disulfide 1-14 (inferred); not fully specified) [SEQ ID NO:12 cyclized, F - (p-Cl-Phe)]",≤ 500 nM,
"CADGPTLREWI[NMeL]FC (disulfide 1-14 (inferred); not fully specified) [SEQ ID NO:12 cyclized, S - (N-Me-Leu)]",≤ 200000 nM,
"CADGPTLREWIS[NMeA]C (disulfide 1-14 (inferred); not fully specified) [SEQ ID NO:12 cyclized, F - (N-Me-Ala)]",~200000 nM,
"CADGPTLREWIS[2Thi]C (disulfide 1-14 (inferred); not fully specified) [SEQ ID NO:12 cyclized, F - Thi]",≤ 500 nM,
"CADGPTLREWIS[2Nal]C (disulfide 1-14 (inferred); not fully specified) [SEQ ID NO:12 cyclized, F - (2-Nal)]",≤ 500 nM,≤ 500 nM
"CADGPTLREWIS[Phg]C (disulfide 1-14 (inferred); not fully specified) [SEQ ID NO:12 cyclized, F - (Phenylgly)]",≤ 500 nM,≤ 500 nM
"CADGPTLREWIS[Pyridylala]C (not fully specified (bridges); also: cyclized, type not given here) [SEQ ID NO:12 cyclized, F - (Pyridylala)]",≤ 500 nM,
"CADGPTLREWIS[NMeF]C (disulfide 1-14 (inferred); not fully specified) [SEQ ID NO:12 cyclized, F - (N-Me-Phe)]",≤ 500 nM,
"CADGPTLREWIS[Cha]C (disulfide 1-14 (inferred); not fully specified) [SEQ ID NO:12 cyclized, F - CHA]",≤ 500 nM,≤ 500 nM
"CADGPTLREWIS[Phe(4-NO2)]C (disulfide 1-14 (inferred); not fully specified) [SEQ ID NO:12 cyclized, F - (p-Nitrophe)]",≤ 500 nM,≤ 500 nM
"CADGPTLREWIS[Phe(3,4-Cl2)]C (disulfide 1-14 (inferred); not fully specified) [SEQ ID NO:12 cyclized, F - (3,4-di-Cl-Phe)]",≤ 500 nM,≤ 200000 nM
"CADGPTLREWIS[Ser(Bzl)]C (disulfide 1-14 (inferred); not fully specified) [SEQ ID NO:12 cyclized, F - (Ser(Bzl))]",≤ 500 nM,

# Next, values leading:
EC50 cell proliferation,EC50 microphysiometer,Binder
~200000 nM,,"CADGPTLREWI[Tle]FC (disulfide 1-14 (inferred); not fully specified) [SEQ ID NO:12 cyclized, S - (t-Bu-Gly)]"
≤ 500 nM,,"CADGPTLREWI[Nle]FC (disulfide 1-14 (inferred); not fully specified) [SEQ ID NO:12 cyclized, S - (Nor-Leu)]"
≤ 500 nM,≤ 500 nM,"CADGPTLREWI[Nva]FC (disulfide 1-14 (inferred); not fully specified) [SEQ ID NO:12 cyclized, S - Nva]"
≤ 500 nM,≤ 200000 nM,"CADGPTLREWI[Aib]FC (disulfide 1-14 (inferred); not fully specified) [SEQ ID NO:12 cyclized, S - Aib]"
≤ 500 nM,,"CADGPTLREWI[Abu]FC (disulfide 1-14 (inferred); not fully specified) [SEQ ID NO:12 cyclized, S - Abu]"
~200000 nM,,"CADGPTLREWI[Sar]FC (disulfide 1-14 (inferred); not fully specified) [SEQ ID NO:12 cyclized, S - Sar]"

# Biological target: T1, full length human TPO-R
# Test: cell-based or functional assay
# Remark: another data set of the same source
EC50 cell proliferation,EC50 microphysiometer,Binder
≤ 500 nM,≤ 500 nM,ADGPTLREWISFC (also: further groups not given here) [[drawing CHEM-US-00027] / [drawing CHEM-US-00028] (SEQ ID NO:173)]
≤ 500 nM,≤ 500 nM,PTLREWISFC (not fully specified; also: further groups not given here) [[drawing CHEM-US-00041] (SEQ ID NO:191)(SEQ ID NO:191)]
~200000 nM,≤ 500 nM,TLREWISFC (also: further groups not given here) [[drawing CHEM-US-00043] (SEQ ID NO:192)(SEQ ID NO:192)]
≤ 500 nM,≤ 500 nM,ADGPTLREWISFC (also: further groups not given here) [[drawing CHEM-US-00036] (SEQ ID NO:173)(SEQ ID NO:173)]
≤ 500 nM,,GPTLREWISFC (not fully specified; also: further groups not given here) [[drawing CHEM-US-00038] (SEQ ID NO:190)(SEQ ID NO:190)]
~200000 nM,~200000 nM,TLREWISFC (also: further groups not given here) [[drawing CHEM-US-00042] (SEQ ID NO:192)(SEQ ID NO:192)]
≤ 500 nM,≤ 500 nM,GPTLREWISFC (not fully specified; also: further groups not given here) [[drawing CHEM-US-00039] (SEQ ID NO:190)(SEQ ID NO:190)]
≤ 500 nM,,PTLREWISFC (not fully specified; also: further groups not given here) [[drawing CHEM-US-00040] (SEQ ID NO:191)(SEQ ID NO:191)]
≤ 500 nM,,ADGPTLREWISFC (also: further groups not given here) [[drawing CHEM-US-00035] (SEQ ID NO:173)(SEQ ID NO:173)]

# Biological target: T1, full length human TPO-R
# Test: cell-based or functional assay
# Remark: another data set of the same source
EC50 cell proliferation,EC50 microphysiometer,Binder
≤ 500 nM,≤ 200000 nM,ADGPTLREWISFC (also: further groups not given here) [[drawing CHEM-US-00016] (SEQ ID NO:173)]
≤ 200000 nM,≤ 200000 nM,EADGPTLREWISFK (also: further groups not given here) [[drawing CHEM-US-00015] (SEQ ID NO:182)]
≤ 500 nM,~200000 nM,ADGPTLREWISFC (also: further groups not given here) [[drawing CHEM-US-00017] (SEQ ID NO:173)]
≤ 500 nM,~200000 nM,ADGPTLREWISFC (not fully specified; also: further groups not given here) [[drawing CHEM-US-00013] (SEQ ID NO:173)]
≤ 200000 nM,~200000 nM,KADGPTLREWISFE (also: further groups not given here) [[drawing CHEM-US-00014] (SEQ ID NO:181)]
≤ 200000 nM,~200000 nM,ADGPTLREWISFC (not fully specified; also: further groups not given here) [[drawing CHEM-US-00006] (SEQ ID NO:173)]
~200000 nM,~200000 nM,ADGPTLREWISFE (also: further groups not given here) [[drawing CHEM-US-00018] (SEQ ID NO:183)]
